Experiment [1] concerns the target human TNFR2 on cells (human) (UniProt P20333). Briefly: flow cytometry on human PBMC, antibody at 10 ug/mL, anti-human Fc-PE secondary; negative control. (In flow cytometry, cells or beads pass a laser one at a time.)
Experiment [2] deals with cynomolgus TNFR2 on cells (cynomolgus). In words: flow cytometry on cynomolgus PBMC, antibody at 10 ug/mL, anti-human Fc-PE secondary; negative control.

Chain of human TNFR2 on cells (human) (P20333 23-461): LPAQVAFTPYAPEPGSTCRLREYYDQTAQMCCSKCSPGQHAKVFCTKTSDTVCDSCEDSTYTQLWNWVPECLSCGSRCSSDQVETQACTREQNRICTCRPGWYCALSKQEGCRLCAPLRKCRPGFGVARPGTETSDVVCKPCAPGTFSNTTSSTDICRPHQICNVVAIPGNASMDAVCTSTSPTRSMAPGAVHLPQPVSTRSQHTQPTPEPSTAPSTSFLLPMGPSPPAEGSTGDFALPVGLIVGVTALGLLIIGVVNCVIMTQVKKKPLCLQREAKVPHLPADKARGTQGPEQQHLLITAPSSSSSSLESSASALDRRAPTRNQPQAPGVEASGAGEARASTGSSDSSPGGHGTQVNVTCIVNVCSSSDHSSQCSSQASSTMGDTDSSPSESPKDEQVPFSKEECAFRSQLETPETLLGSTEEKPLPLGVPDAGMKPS

In experiment [1], “Isotype Control (Negative Control) (antibody)” yielded a % CD4^+ ab^+ Donor 1 of 0.7%, a % CD4^+ ab^+ Donor 2 of 0.7%, a % CD8^+ ab^+ Donor 1 of 0.5% and a % CD8^+ ab^+ Donor 2 of 0.7%. In experiment [2], this substance came in with a % CD4^+ ab^+ Donor 1 of 0.2%, a % CD4^+ ab^+ Donor 2 of 0.5%, a % CD8^+ ab^+ Donor 1 of 0.2% and a % CD8^+ ab^+ Donor 2 of 0.6%.
